± gives the standard deviation of the averaged measurements.
B1: library; numbered along this chain (parent)
chain: MNIQIGELAKRTACPVVTIRFYEQEGLLPPPGRSRGNFRLYGEEHVERLQFIRHCRSLDMPLSDVRTLLSYRKRPDQDCGEVNMLLDEHIRQVESRIGALLELKHHLVELREACSGARPAQSCGILQGLSDCVCDTRGTTAHPSD

Columns and labels:
[1] = variants of: B1; assay: sfGFP reporter fluorescence (15 h) (µM FITC); higher = higher leak; conditions: library round: Round 1; ligand: none
Method in brief: (§1)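 Values are endpoint sfGFP fluorescence given as µM FITC equivalents. Fluorescence was read at 485/528 nm on a Synergy Neo2, and FITC standard curves were prepared in 50 mM sodium borate pH 8.5. Reactions of 1 μL combined BL21 Star (DE3) PANOx-SP extract, pPbrR-sfGFP reporter, 30 μg/mL GamS and linear PbrR templates (PCR-made, Echo-normalized to 5 nM), with 1 µM lead chloride, 30 µM zinc acetate or no metal, for 15 hr at 30 °C.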

[2] = variants of: B1; assay: sfGFP reporter fluorescence (15 h) (µM FITC); higher = stronger transcriptional activation; conditions: library round: Round 1
Method in brief: as §1

[3] = variants of: B1; assay: sfGFP reporter fluorescence (15 h) (µM FITC); higher = higher leak; conditions: library round: Round 0; ligand: none
Protocol: (§2)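 Cell-free (BL21 Star DE3 extract, PANOx-SP) biosensing: 1 µL Echo-assembled reactions with linear PbrR variant templates (5 nM) and pPbrR-sfGFP reporter, with 1 µM Pb (lead chloride), 30 µM Zn (zinc acetate) or no ligand; endpoint sfGFP fluorescence after 15 h at 30 °C, calibrated as µM FITC. Round 0 library (alanine scan, site saturation, combinatorial) of PbrR from Cupriavidus metallidurans; 2 biological replicates.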

[4] = variants of: B1; assay: sfGFP reporter fluorescence (15 h) (µM FITC); higher = stronger transcriptional activation; conditions: library round: Round 0
Protocol: as §2

| Variant | sfGFP reporter fluorescence [1] | sfGFP reporter fluorescence ([2]; ligand: 1 µM Pb) | sfGFP reporter fluorescence ([2]; ligand: 30 µM Zn) | sfGFP reporter fluorescence [3] | sfGFP reporter fluorescence ([4]; ligand: 1 µM Pb) | sfGFP reporter fluorescence ([4]; ligand: 30 µM Zn) |
| --- | --- | --- | --- | --- | --- | --- |
| N83T I97S K104G | 0.0612 ± 0.0026 | 0.076 ± 0.0097 | 0.102 ± 0.0094 | – | – | – |
| R33A G36L | 0.0634 ± 0.0035 | 0.0567 ± 0.0051 | 0.0604 ± 0.00092 | – | – | – |
| D64I D135T | 0.164 ± 0.02 | 0.514 ± 0.04 | 1.63 ± 0.29 | – | – | – |
| V108E E109H | 0.0605 ± 0.0011 | 0.0687 ± 0.003 | 0.224 ± 0.01 | – | – | – |
| P61S G128I D131C | 0.12 ± 0.0019 | 0.286 ± 0.053 | 1.25 ± 0.2 | – | – | – |
| L49A | – | – | – | 0.0619 ± 0.001 | 0.0614 ± 0.0013 | 0.0969 ± 0.011 |
| N83S V108N | 0.0632 ± 0.0015 | 0.0665 ± 0.0043 | 0.146 ± 0.0045 | – | – | – |
| G128S D135A | 0.0652 ± 0.0016 | 0.0925 ± 0.0068 | 0.604 ± 0.015 | – | – | – |
| I97H | – | – | – | 0.0564 ± 0.0062 | 0.0596 ± 0.0034 | 0.263 ± 0.0018 |
| I97W | – | – | – | 0.0585 ± 0.006 | 0.0616 ± 0.0015 | 0.176 ± 0.0073 |
| I97S | – | – | – | 0.0592 ± 0.0039 | 0.0722 ± 0.0015 | 0.554 ± 0.0062 |
| I90L D131C | 0.0627 ± 0.00064 | 0.0647 ± 0.0038 | 0.122 ± 0.0066 | – | – | – |
| L107C G128I D135A P143K | 0.787 ± 0.091 | 1.52 ± 0.079 | 2.47 ± 0.14 | – | – | – |
| L107E G128I | 0.0629 ± 0.0025 | 0.0633 ± 0.0023 | 0.0621 ± 0.0022 | – | – | – |
| P61A L107C G128M | 1.26 ± 0.063 | 1.47 ± 0.35 | 2.25 ± 0.16 | – | – | – |
| R111L G128P | 0.0584 ± 0.0015 | 0.0568 ± 0.0028 | 0.0542 ± 0.0045 | – | – | – |
| P61N L62I | 0.0668 ± 0.0015 | 0.0856 ± 0.0013 | 0.379 ± 0.015 | – | – | – |
| G128D | – | – | – | 0.0603 ± 0.0023 | 0.0607 ± 0.00078 | 0.108 ± 0.0029 |
| L27P | – | – | – | 0.0607 ± 0.0034 | 0.0612 ± 0.001 | 0.0656 ± 0.0026 |
| L27W | – | – | – | 0.0616 ± 0.0036 | 0.0623 | 0.0638 |
| D64K R111A | 0.112 ± 0.0044 | 0.382 ± 0.052 | 1.83 ± 0.27 | – | – | – |
| N83T D135A P143A | 0.0625 ± 0.002 | 0.0748 ± 0.0033 | 0.162 ± 0.0078 | – | – | – |

| Variant | sfGFP reporter fluorescence [1] | sfGFP reporter fluorescence ([2]; ligand: 1 µM Pb) | sfGFP reporter fluorescence ([2]; ligand: 30 µM Zn) | sfGFP reporter fluorescence [3] | sfGFP reporter fluorescence ([4]; ligand: 1 µM Pb) | sfGFP reporter fluorescence ([4]; ligand: 30 µM Zn) |
| --- | --- | --- | --- | --- | --- | --- |
| L129C | – | – | – | 0.0561 ± 0.0015 | 0.05791 ± 0.00052 | 0.05443 ± 0.00026 |
| L129E | – | – | – | 0.0581 ± 0.0013 | 0.0597 ± 0.0021 | 0.0546 ± 0.0015 |
| L129F | – | – | – | 0.0559 ± 0.0013 | 0.0581 ± 0.00078 | 0.0564 ± 0.001 |
| R111I G128I | 0.0666 ± 0.0015 | 0.127 ± 0.0043 | 0.695 ± 0.036 | – | – | – |
| E112I D131C | 0.06499 ± 0.00042 | 0.0652 ± 0.002 | 0.083 ± 0.0019 | – | – | – |
| N83T I97H | 0.0607 ± 0.0023 | 0.0635 ± 0.00085 | 0.0778 ± 0.0044 | – | – | – |
| N83T I97T | 0.06157 ± 0.00037 | 0.0658 ± 0.0032 | 0.102 ± 0.0039 | – | – | – |
| D135W | – | – | – | 0.0737 ± 0.0036 | 0.146 ± 0.012 | 1.83 ± 0.17 |
| D135I | – | – | – | 0.0614 ± 0.0018 | 0.0927 ± 0.0031 | 1.72 ± 0.18 |
| G128H P143A | 0.061 ± 0.0027 | 0.0728 ± 0.0023 | 0.121 ± 0.0099 | – | – | – |
| D131L D135A | 0.0688 ± 0.0015 | 0.0969 ± 0.027 | 0.476 ± 0.055 | – | – | – |
| D131H D135P | 0.0673 ± 0.0015 | 0.0988 ± 0.017 | 0.455 ± 0.04 | – | – | – |
| D131H D135A | 0.065 ± 0.00092 | 0.0777 ± 0.0089 | 0.402 ± 0.014 | – | – | – |
| D131A D135A P143A | 0.0687 ± 0.0035 | 0.0917 ± 0.0098 | 0.487 ± 0.043 | – | – | – |
| N83T D131S P143Y | 0.0614 ± 0.0015 | 0.0782 ± 0.0092 | 0.144 ± 0.014 | – | – | – |
| K10A V46T C134T | 0.0627 ± 0.0013 | 0.0699 ± 0.0061 | 0.226 ± 0.021 | – | – | – |
| D131T D135Y | 0.074 ± 0.0013 | 0.0933 ± 0.014 | 0.801 ± 0.026 | – | – | – |
| G36R | – | – | – | 0.0597 ± 0.0015 | 0.0656 ± 0.0026 | 0.247 ± 0.0088 |
| D64T Q127G | 0.0611 ± 0.004 | 0.0887 ± 0.0049 | 0.594 ± 0.062 | – | – | – |
| E43M | – | – | – | 0.0597 ± 0.0047 | 0.099 ± 0.0047 | 1.33 ± 0.083 |
| E43Y | – | – | – | 0.0599 ± 0.00078 | 0.0924 ± 0.017 | 1.2 ± 0.058 |
| R39F V46C | 0.065 ± 0.0013 | 0.0632 ± 0.0031 | 0.0655 ± 0.0018 | – | – | – |

Source: the supplement of paper PMC12783771
